Test results taken from patent publication US20100074892A1.

Biological target: recombinant anthrax protective antigen (PA) (Bacillus anthracis) (UniProt P13423)
Test: SPR (Biacore)

recombinant anthrax protective antigen (PA) (Bacillus anthracis), sequence (P13423 30-764 limits assumed): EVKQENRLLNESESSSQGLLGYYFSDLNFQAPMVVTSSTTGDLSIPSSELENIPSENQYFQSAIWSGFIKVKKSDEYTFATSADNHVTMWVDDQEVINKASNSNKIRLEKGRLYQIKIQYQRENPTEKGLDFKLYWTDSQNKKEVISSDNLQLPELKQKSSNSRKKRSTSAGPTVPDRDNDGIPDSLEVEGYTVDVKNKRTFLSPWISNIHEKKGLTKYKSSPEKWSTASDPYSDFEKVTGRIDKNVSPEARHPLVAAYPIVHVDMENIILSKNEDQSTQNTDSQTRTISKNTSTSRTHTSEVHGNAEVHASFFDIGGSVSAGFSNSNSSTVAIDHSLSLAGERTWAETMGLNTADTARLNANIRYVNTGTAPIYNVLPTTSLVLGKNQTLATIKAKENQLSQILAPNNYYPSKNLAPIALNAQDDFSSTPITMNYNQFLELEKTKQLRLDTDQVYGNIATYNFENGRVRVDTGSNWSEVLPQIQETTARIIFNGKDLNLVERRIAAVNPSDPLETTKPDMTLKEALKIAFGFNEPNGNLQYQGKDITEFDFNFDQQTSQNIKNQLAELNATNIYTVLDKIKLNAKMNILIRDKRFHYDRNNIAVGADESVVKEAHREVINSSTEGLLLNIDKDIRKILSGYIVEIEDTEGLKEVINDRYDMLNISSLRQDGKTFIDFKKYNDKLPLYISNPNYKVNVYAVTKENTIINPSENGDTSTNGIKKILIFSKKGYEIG

Work on mouse anti-PA monoclonal antibody 14B7 yielded a Kd of 4 nM.
